Assay results as given in patent publication US20210095032A1 (SALUBRIS CHENGDU BIOTECH, published 2021).
Like-named read-outs stand apart in the source and are kept apart here.

What was measured:
[1] = molecular target: T1, biotin-labeled human PD-1 Fc protein (human, biotin-labeled (site not stated)); assay: capture ELISA, antibody captured on plate, biotin-labeled human PD-1 Fc in solution
T1 construct: also called PD-1-Fc-biotin
Procedure: (§1) Plates were washed 4 times with wash buffer (PBS+0.05% Tween-20, PBST) and then blocked with 200 μl/well blocking buffer (5% w/v non-fatty milk in PBST) for 2 hours at 37° C. […] After a final wash, plates were incubated with 100 μl/well ELISA substrate TMB (Innoreagents). The reaction was stopped in 15 minutes at 25° C. with 50 μl/well 1M H₂SO₄, and the absorbance was read at 450 nm. Data were analyzed using Graphpad Prism software and EC₅₀ values were reported.

[2] = molecular target: T1, biotin-labeled human PD-1 Fc protein; assay: as above; remark: listed apart in the source
Procedure: as §1

[3] = molecular target: T1, biotin-labeled human PD-1 Fc protein; assay: as above; remark: listed apart in the source
Procedure: as §1

[4] = molecular target: T2, recombinant human PD-1-his (Sino biological, #10377-H08H) (human, UniProt Q15116 25-167); assay: SPR (Biacore), antibody captured, human PD-1-his flowed
T2 construct: Bought protein; also called Human PD-1-his protein; not shown: his tag
From the text: (§2) Briefly, goat anti-mouse IgG (GE healthcare, Cat #BR100839, Human Antibody Capture Kit) was covalently linked to a CMS chip (carboxy methyl dextran coated chip) via primary amines, using a standard amine coupling kit (GE healthcare, Pittsburgh, Pa., USA) provided by Biacore. Un-reacted moieties on the biosensor surface were blocked with ethanolamine. […] Then, recombinant human PD-1-his (Sino biological, #10377-H08H) or cynomolgus monkey PD-1-his protein (Acro biosystems, #PD-1-05223) in HBS EP buffer (provided by Biacore) was flowed onto the chip at a flow rate of 30 μL/min. The antigen-antibody association kinetics was followed for 2 minutes and the dissociation kinetics was followed for 10 minutes. The association and dissociation curves were fit to a 1:1 Langmuir binding model using BIA evaluation software.

[5] = molecular target: T1, biotin-labeled human PD-1 Fc protein; assay: competition ELISA, antibody + biotin human PD-1-Fc on coated human PD-L1-Fc (competitor PD-L1-Fc)
Procedure: (§3) The next day, plates were washed with wash buffer (PBS+0.05% Tween-20, PBST), and blocked with 5% non-fatty milk in PBST for 2 hours at 37° C. Plates were then washed again using wash buffer.
(§4) After incubation at 37° C. for 40 minutes, plates were washed for 4 times using wash buffer. […] Plates were washed again using wash buffer. Finally, TMB was added and the reaction was stopped using 1M H₂SO₄, and the absorbance was read at 450 nm. Data were analyzed using Graphpad Prism software and IC₅₀ values were reported.

[6] = molecular target: T1, biotin-labeled human PD-1 Fc protein; assay: as above; remark: listed apart in the source
Procedure: as §3, §4

[7] = molecular target: T1, biotin-labeled human PD-1 Fc protein; assay: competition ELISA, antibody + biotin human PD-1 Fc on coated Nivolumab (competitor Nivolumab)
Procedure: (§5) The next day, plates were washed with wash buffer, and blocked with 5% non-fatty milk in PBST for 2 hours at 37° C. […] Plates were finally washed using wash buffer. TMB was added and the reaction was stopped using 1M H₂SO₄, and the absorbance was read at 450 nm. Data were analyzed using Graphpad Prism software and IC₅₀ values were reported.

[8] = molecular target: T1, biotin-labeled human PD-1 Fc protein; assay: capture ELISA, antibody captured on plate, biotin-labeled human PD-1 Fc in solution; remark: listed apart in the source
Procedure: as §1

[9] = molecular target: T3, human PD-1 on PD-1 Effector Cell Line (Genscript, GS-J2/PD-1) (human, UniProt Q15116 25-288); assay: cell-based or functional assay
[10] = molecular target: T1, biotin-labeled human PD-1 Fc protein; assay: competition ELISA, antibody + biotin human PD-1-Fc on coated human PD-L1-Fc (competitor PD-L1-Fc); remark: listed apart in the source
Procedure: as §3, §4

[11] = molecular target: T3, human PD-1 on PD-1 Effector Cell Line …; assay: cell-based or functional assay; remark: listed apart in the source
[12] = molecular target: T4, cynomolgus monkey PD-1-his protein (Acro biosystems, #PD-1-05223) (cynomolgus monkey, UniProt B0LAJ3 25-170); assay: SPR (Biacore), antibody captured, cynomolgus PD-1-his flowed
T4 construct: Bought protein; also called Cynomolgus PD-1; Cynomolgus PD1
From the text: as §2

[13] = molecular target: T3, human PD-1 on PD-1 Effector Cell Line …; assay: cell-based or functional assay; remark: listed apart in the source
[14] = molecular target: T1, biotin-labeled human PD-1 Fc protein; assay: competition ELISA, antibody + biotin human PD-1 Fc on coated Nivolumab (competitor Nivolumab); remark: listed apart in the source
Procedure: as §5

[15] = molecular target: T2, recombinant human PD-1-his (Sino …); assay: SPR (Biacore T200), antibody captured, PD-1-his flowed, 1:1 Langmuir fit
From the text: as §2

[16] = molecular target: T4, cynomolgus monkey PD-1-his protein …; assay: as above
From the text: as §2

[17] = molecular target: T1, biotin-labeled human PD-1 Fc protein; assay: competition ELISA, antibody + biotin human PD-1 Fc on coated Nivolumab (competitor Nivolumab); remark: listed apart in the source
Procedure: as §5

[18] = molecular target: T1, biotin-labeled human PD-1 Fc protein; assay: capture ELISA, antibody captured on plate, biotin-labeled human PD-1 Fc in solution; remark: listed apart in the source
Procedure: as §1

[19] = molecular target: T1, biotin-labeled human PD-1 Fc protein; assay: as above; remark: listed apart in the source
Procedure: as §1

[20] = molecular target: T1, biotin-labeled human PD-1 Fc protein; assay: as above; remark: listed apart in the source
Procedure: as §1

[21] = molecular target: T1, biotin-labeled human PD-1 Fc protein; assay: as above; remark: listed apart in the source
Procedure: as §1

Row | Binder | EC50 [1] [ng/mL] | EC50 [2] [pM] | EC50 [3] [pM] | Kd [4] [pM] | IC50 [5] [pM] | IC50 [6] [pM] | IC50 [7] [pM] | EC50 [8] [pM] | Cell-based functional reporter assay (IC50, nM) [9] [nM] | Cell-based functional assay (EC50, nM) [11] [nM] | Kd [12] [pM] | IC50 [14] [pM] | IC50 [17] [pM] | EC50 [18] [ng/mL] | EC50 [19] [ng/mL] | EC50 [20] [ng/mL] | EC50 [21] [ng/mL] | other results
1 | chimeric D2A4 antibody (antibody, human IgG1, kappa, V domains shown, Mouse variable domains cloned in frame to human IgG1 and kappa constant regions; also called chD2A4; ChD2A4) VH: EVKLVESGGGLVKPGGSLKLSCAASGFTFSSYTMSWVRQTPAKRLEWVATISGGGSNTYYPDSVKGRFTISRDNARNTLYLQMSSLRSEDTAMYYCARQAFYSNYWYFDVWGAGTTVTVSS VL: DIQMTQSPASQSASLGESVTITCLASQTIGTWLAWYQQTPGKSPQLLIYAATSLADGVPSRFSGSGSGTKFSFKISSLQAEDFASYYCQQVSSIPWTFGGGTKLEIRR | 0.681 | – | 240 | – | 1710 | 1710 | 350 | 240 | 9.46 | 9.46 | – | 350 | – | 0.773 | – | – | – | –
2 | huD2A4-V5 (antibody, human IgG1, kappa, Humanized D2A4, human IgG1/kappa) heavy: not shown light: DIQMTQSPSSVSASVGDRVTITCLASQTIGTWLAWYQQKPGKSPKLLIYAATSLADGVPSRFSGSGSGTDFTLTISSLQPEDFATYYCQQVSSIPWTFGGGTKVEIKRTVAAPSVFIFPPSDEQLKSGTASVVCLLNNFYPREAKVQWKVDNALQSGNSQESVTEQDSKDSTYSLSSTLTLSKADYEKHKVYACEVTHQGLSSPVTKSFNRGEC | – | – | – | – | – | – | – | – | – | – | – | – | – | 0.773 | – | – | – | –
3 | huD2A4-V6 (antibody, human IgG1, kappa, V domains shown, Humanized D2A4, human IgG1/kappa) VH: EVQLVESGGGLVQPGGSLRLSCAASGFTFSSYTMSWVRQAPGKGLEWVSTISGGGSNTYYPDSVKGRFTISRDNSKNTLYLQMNSLRAEDTAVYYCARQAFYSNYWYFDVWGKGTTVTVSS VL: DIQMTQSPSSVSASVGDRVTITCLASQTIGTWLAWYQQKPGKAPKLLIYAATSLADGVPSRFSGSGSGTDFTLTISSLQPEDFATYYCQQVSSIPWTFGGGTKVEIKR | – | – | 270 | 3060 | – | 1690 | – | – | – | 7.6 | 6430 | 490 | – | 0.999 | – | – | – | –
4 | chimeric D2H3 antibody (antibody, human IgG1, kappa, V domains shown, Mouse variable domains cloned in frame to human IgG1 and kappa constant regions; also called chD2H3) VH: EVQLQQSGTVLARPGASVKMSCKSSGYTFTNYWMHWVKQRPGQGLEWIGAIFPRNSETNYNQKFKAKAKLTAVTSASTAYMEVSSLTSEDSAVYFCTRNRYGLDYWGQGTSVTVSS VL: DIVLTQSPGFLAVSLGQRATISCRASESVSLHGTRLMHWYHQKPGQPPKLLISLGSNLESGVPARFSGSGSETDFTLNIHPVEEEDAATYFCQQSIEDPWTFGGGTKLEIKR | – | – | 170 | 441 | 740 | 740 | 190 | 170 | 5.36 | 5.36 | 1780 | 190 | – | – | 0.31 | 1.51 | 1.04 | –
5 | Nivolumab (OPDIVO®) (antibody, V domains shown) VH: QVQLVESGGGVVQPGRSLRLDCKASGITFSNSGMHWVRQAPGKGLEWVAVIWYDGSKRYYADSVKGRFTISRDNSKNTLFLQMNSLRAEDTAVYYCATNDDYWGQGTLVTVSS VL: EIVLTQSPATLSLSPGERATLSCRASQSVSSYLAWYQQKPGQAPRLLIYDASNRATGIPARFSGSGSGTDFTLTISSLEPEDFAVYYCQQSSNWPRTFGQGTKVEIK | 0.351 | 210 | 450 | – | – | 420 | – | – | – | – | – | – | 3790 | 0.268 | 1.37 | 0.365 | 0.27 | –

Continued, in another order:

Row | EC50 [1] [ng/mL] | EC50 [2] [pM] | EC50 [3] [pM] | Kd [4] [pM] | IC50 [5] [pM] | IC50 [6] [pM] | IC50 [7] [pM] | EC50 [8] [pM] | Cell-based functional reporter assay (IC50, nM) [9] [nM] | Cell-based functional assay (EC50, nM) [11] [nM] | Kd [12] [pM] | IC50 [14] [pM] | IC50 [17] [pM] | EC50 [18] [ng/mL] | EC50 [19] [ng/mL] | EC50 [20] [ng/mL] | EC50 [21] [ng/mL] | Binder | other results
6 | 0.281 | 190 | 130 | 2550 | 1510 | 1510 | 330 | 130 | 6.18 | 6.18 | 6570 | 330 | 2220 | – | – | – | – | mouse anti-PD-1 monoclonal antibody D2A4 (antibody, V domains shown, Mouse antibody purified from a hybridoma; also called Mouse D2A4; mouse D2A4) VH: EVKLVESGGGLVKPGGSLKLSCAASGFTFSSYTMSWVRQTPAKRLEWVATISGGGSNTYYPDSVKGRFTISRDNARNTLYLQMSSLRSEDTAMYYCARQAFYSNYWYFDVWGAGTTVTVSS VL: DIQMTQSPASQSASLGESVTITCLASQTIGTWLAWYQQTPGKSPQLLIYAATSLADGVPSRFSGSGSGTKFSFKISSLQAEDFASYYCQQVSSIPWTFGGGTKLEIR | IC50 [10]: 170 pM; Reporter Activation (EC50, nM), human PD-1 cell (NFAT-luc)/human PD-L1 cell [13]: 8.1 nM; Kd [15]: 2550 pM; koff [15]: 0.000401 s⁻¹; kon [15]: 157000 M⁻¹ s⁻¹; Kd [16]: 6570 pM; koff [16]: 0.000793 s⁻¹; kon [16]: 121000 M⁻¹ s⁻¹
7 | – | – | 170 | 308 | – | 680 | – | – | – | 7.11 | 1500 | 180 | – | – | 0.531 | – | – | huD2H3-V14 (antibody, human IgG1, kappa, V domains shown, Humanized D2H3, human IgG1/kappa) VH: EVQLVQSGAEVKKPGSSVKVSCKASGYTFTNYWMHWVRQAPGQGLEWMGAIFPRNSETNYNQKFKARVTITADESTSTAYMELSSLRSEDTAVYYCTRNRYGLDYWGQGTLVTVSS VL: DIVMTQSPDSLAVSLGERATINCRASESVSLHGTRLMHWYQQKPGQPPKLLIYLGSNLESGVPDRFSGSGSGTDFTLTISSLQAEDVAVYYCQQSIEDPWTFGQGTKLEIKR | –
8 | – | 150 | 170 | 373 | 890 | 890 | 210 | 170 | 8.48 | 8.48 | 1460 | 210 | 760 | – | 0.388 | 0.229 | 0.18 | mouse anti-PD-1 monoclonal antibody D2H3 (antibody, V domains shown, Mouse antibody purified from a hybridoma; also called Mouse D2H3; mouse D2H3) VH: EVQLQQSGTVLARPGASVKMSCKSSGYTFTNYWMHWVKQRPGQGLEWIGAIFPRNSETNYNQKFKAKAKLTAVTSASTAYMEVSSLTSEDSAVYFCTRNRYGLDYWGQGTSVTVSS VL: DIVLTQSPGFLAVSLGQRATISCRASESVSLHGTRLMHWYHQKPGQPPKLLISLGSNLESGVPARFSGSGSETDFTLNIHPVEEEDAATYFCQQSIEDPWTFGGGTKLEIK | IC50 [10]: 190 pM; Reporter Activation (EC50, nM), human PD-1 cell (NFAT-luc)/human PD-L1 cell [13]: 3.02 nM; Kd [15]: 373 pM; koff [15]: 0.000122 s⁻¹; kon [15]: 326000 M⁻¹ s⁻¹; Kd [16]: 1460 pM; koff [16]: 0.000308 s⁻¹; kon [16]: 211000 M⁻¹ s⁻¹
